The values that follow come from US20200071382A1 (published 2020).

Some results are limits rather than exact numbers.

The target in the assay is T1, BMP9 (UniProt Q9UK05 320-429).
T1 construct: Ligand injected over the captured receptor protein
T1 sequence (looked up): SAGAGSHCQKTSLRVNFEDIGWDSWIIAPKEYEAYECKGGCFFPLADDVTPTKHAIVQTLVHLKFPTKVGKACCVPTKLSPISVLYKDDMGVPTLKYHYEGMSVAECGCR
Briefly: Biacore SPR; protein captured by anti-Fc antibody, ligand injected. How it is done: These protein complexes were independently captured in the system using an anti-Fc antibody. Ligands were injected and allowed to flow over the captured receptor protein. Results are summarized in the table below, in which ligand off-rates (kd) most indicative of effective ligand traps are denoted by bold text.
Background: SPR reads the build-up and loss of mass on a sensor chip optically.

A word on the Kd: it is a measure of binding affinity in units of concentration. Higher therefore signals a looser complex.

B1: ENG(26-346)-Fc:Fc monomeric complex (Fc fusion)
chain: ETVHCDLQPVGPERDEVTYTTSQVSKGCVAQAPNAILEVHVLFLEFPTGPSQLELTLQASKQNGTWPREVLLVLSVNSSVFLHLQALGIPLHLAYNSSLVTFQEPPGVNTTELPSFPKTQILEWAAERGPITSAAELNDPQSILLRLGQAQGSLSFCMLEASQDMGRTLEWRPRTPALVRGCHLEGVAGHKEAHILRVLPGHSAGPRTVTVKVELSCAPGDLDAVLILQGPPYVSWLIDANHNMQIWTTGEYSFKIFPEKNIRGFKLPDTPQGLLGEARMLNASIVASFVELPLASIVSLHASSCGGRLQTSPAPIQTTPPTGGGTHTCPPCPAPELLGGPSVFLFPPKPKDTLMISRTPEVTCVVVDVSHEDPEVKFNWYVDGVEVHNAKTKPREEQYNSTYRVVSVLTVLHQDWLNGKEYKCKVSNKALPAPIEKTISKAKGQPREPQVYTLPPSRKEMTKNQVSLTCLVKGFYPSDIAVEWESNGQPENNYKTTPPVLKSDGSFFLYSKLTVDKSRWQQGNVFSCSVMHEALHNHYTQKSLSLSPGK
Molecule B1 registered a dissociation constant Kd greater than 36 nM.
